From the nanobody polyreactivity screen of Harvey et al. (2022) come the findings set out here.

The data set can be described thus: yeast display, Sf9 membrane polyspecificity reagent, FACS + sequencing; frameworks hold sequencing errors. In outline: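 Nanobodies came from a synthetic yeast display library in Saccharomyces cerevisiae BJ5465, induced with galactose for 36–48 hours and stained for 1 hour at 4 °C with 10% biotinylated, detergent-solubilized Sf9 membrane reagent. Cells were enriched on streptavidin microbeads and then FACS-sorted, with low and high (top ~1%) gates set on anti-HA fluorescence for expression and streptavidin fluorescence for reagent binding. Each polyreactivity label reflects the gate a clone came from. Genes were amplified by colony PCR, sequenced by MiSeq 2 × 250 and filtered by CDR length.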
On to “QVKLVESGGGLVQAGGSLRLSCAASGRICGYYAMGWYRQAPGNERELVAAISWSGGSTYYADSVKGRFTISRDNAMNTVYLQRNSLKPEDTAVYYCNARYPNTRKYDYWGQVTQVTVSS”, for which the “polyreactivity (PSR sort gate)” value is recorded as “high polyreactivity”.
With “QVQLVESGGGLVQAGGSLRLSCAASGRIFRINAMGWYRQAPGKERELVASITSRAGSTYYADSVKGRFTISRDNAKNTVYLQMTSLKPEDTAVYDCAARSVYTYYRLDYWGQGSQVTVSS” the entry was “high polyreactivity”; with “QVQLVESGGGLVQAGGSLRLSSAASGRTFYYYAFGWYRQAPGKERELVARITAICGRTYYADSVKGRFTISLDNAKNTVYLQMNCLKPEDTAVYYCAAASWPAYSYYPFYYWGQGSQVTVSS”, “high polyreactivity”.
In the case of “QVPLVESGGGLVQAGGSLRLSCDASGSTFFPNAMGWYRQAPGKEREFVAAISWSGGRTYYADSVKGRFTISRDNAKNTVYLQMNSLKPEDTAVYYCAARLYTVRYGYWGQGTQVTVSS”, the “polyreactivity (PSR sort gate)” value is listed as “high polyreactivity”.
With “QVQLVESGGGLVQAGVSLRLSCSASGGTFPQYAMAWYRHAPGKEREFVADITSRGGTTYYADSVKGRFTISRDNAKNTVFLQMNRLKPEDTAVYFCAADNPADWWGLDYWGQGTQVTVSS” the entry was “low polyreactivity”; with “QVQLVESGVGLVQAGGSLRLSCAASGYIFYQYAMGWYRQAPGKERELVSTISWRGGSTYYADSVKGRFTISRDNAKNTVYLQMNCLKPEDTAVYYCAARKRPYTVINGMDYWGQGTQVTVSS”, “low polyreactivity”.
Under “QVQLVESGGGLVQAGGSLLLSCAASGRTFILNAMGWYRQAPGKERELVAAISWSGGSTYYADSVKGRFTISRDKSKNTVYLQMNSLKPEDPAVYYCAAETYAYLFHTYDYGGQGTQVTVSS” stands “low polyreactivity”; under “QVQLVESGGGLVQAGGSLRLSCAASGSIFYSYAMGWYRQAPGKERELVADITITGSTYYADSVKGRFTISRDNAKNTVYLQMNSLKPEDTAVYYCTAVLAPGGYDYWGQGTQVTVSS”, “low polyreactivity”; under “QVQLVESGGGLVQAGGSLRLSCAASGRTFGNNAMGWYRQAPGKERELVAAITARGSRTYYADSVKGRFTISRDNAKNTVYLQMNSLKPEDTAVYYCNAGVRRYYRSLHSIGIYYYWGQGTQVTVSS”, “high polyreactivity”.
Regarding “QVQLVESGGGLVQAGGSLRLSCADSGSTSYRYAMGRYRQSPGKERELVAVITSGSSTYYADSVKGRFTISRDNAKNTDYLQINSLKPEDTAVYYCAVGRTYRRYSAASYNYWGQGTQVTVSS”, the “polyreactivity (PSR sort gate)” value is “high polyreactivity”.
Under “QVQLVESGGGLVQAGGSLRLICAASGSIFFYYAMGWYRQAPGKERELVAAITKIGVGTFYADSVKGRFTISRDNAKNTVYLQMNSLKPEDTAVYYCNARTAWEGYDYWGQGTQVTVSS” stands “low polyreactivity”; under “QVQLVESGGGLVQAGGSLRLSCAASGFTFRSYAMGWYRQAPGKVRELVAAISLGGTSTYYADSVKGRFTISRDNAKNTVYLPMNSLKPEDTAVYYCAARSYGHYGYWGQGTQVTVSS”, “high polyreactivity”; under “QVQLVESGGGLVQAGGSLRLSCAASGFTFYFYAMGWYRQAPGKETELVAGISRGGSTTYADSVTGRFTISRDNAKNTVYLQRNSLKPHDTAVYYCAVGYDIVRYSYSPFYRYDYWGQGTQVTVSS”, “low polyreactivity”.
“HVQHVESGGGLVQAGGSLRVSCAASGSTFYYNAMGWYRQAPGKERELVARISRSGASTYYADSVKGRFTISRDIAKNSVYLQMNSLKPEDTAVYYCATRNLGHERWYYYWGQGTQVTVSS”: the “polyreactivity (PSR sort gate)” value was “high polyreactivity”.
“QVQLVESGGGLVQAGGSLRLSCAASGRTFNSNAMGWYRQAPGKERELVAAITRSGGSTYYADSVKGRFTISRDNAKNTVYLQMNSLKPEDTAVYYCNKTRWTQRTSFDYWGQGTQVTVSS”: the “polyreactivity (PSR sort gate)” value is recorded as “low polyreactivity”.
Under “QVQLVESGGGLVQAGGSLRLSCAASGSTFYLYTMGWYRLAPGKERELVAAISVSGGSTFYADSVKGRFSISRDNAKNTVYLQKNSLKPEDTAVYYSAADGYLHAGHWRTYGYYYWGQGTQVTVSS” stands “low polyreactivity”.
Regarding “QVQLVESGGGLVQAGGSLRLSCAASGSTLWTYAMGWYRQAPGKERELVAAISGGGGSTYYADSVKGRFTISRDNAKNTVYLQMNSLKPEDTAVYYCAAVTWVGWGQRRRDYWGHGTQVTVSS”, the “polyreactivity (PSR sort gate)” value was “high polyreactivity”.
Under “QVQLVESGGRLVQAGGSLRLSCAASGSIFGWYAMGWYRQAPGKESEFVASISVTAGSTYYADSVKWRFTISRDNAKNTVYLQMNSLKPEDTAVFYCAADDYTADAVQRFYYWGQGTQVTVSS” stands “low polyreactivity”; under “QDQLVESGGGLVPAVGSLRLTCAASGYTFWDYTMGLYRQAPGKERELGAAMSSSGSSTYYADSVKGRFTISRDNAKNTVYLQMNSLKPEDNAVYYCAAYSRRQWKYDYWGQGTHVTVSS”, “high polyreactivity”; under “QVQLVESGGGLVQAGVSLRLSCAASGTFYYAMGWYRQAPGKEREFVAAISWRGGTTYYADSVKGRFTISRDNAKNTVYLQMNSLKPEDTAVYYCATAPYVTSRRYGPYEYWGQGTQVTVSS”, “low polyreactivity”.
With “QVQLVESGGGIVQAGGSLRLSCAASGSIFARYAMGWSRPAPGKERELVAAISGRGGSTYYADSVKGRFTISRDHATNTDYLQMNSLKPEDTAVYYWNAVWDDYGFYSPYVVVEYDYWGQGTQVTVSS” the entry was “high polyreactivity”.
Under “QVQLVESGGGLVQAGGSLRLSCAASGSTFVDKAMGWYRQAPGKERELVATISSGGSTYYADSVKGRFTISRDNAKNTVYLQMNSLKPEDTAVYYCNADGNKRYPWVDYWGQGTQVTVSS” stands “low polyreactivity”; under “QVQLVESGGCLVQAGGRLRLSCAASGRIFYWNDMGWYRQAPGKERELVAAIDFSGASTYYADSVKGRFTISRDNAKNTVYLEMNSLKPEDTAVYYCAAYQRRGKYQMDYWGQGTQVTVSS”, “low polyreactivity”.
For the sequence “QVQLVESGRGLDQAGGSLRLSCAASASTFAWYDMGCYRHAPGKEREFVAAIDYGGGSTYADSVKGRFTISRDNAKNTVYLQMNSLKPEDTAVYYCNADNWVYLYDYWGQGTQVTVSS”, the “polyreactivity (PSR sort gate)” value was “low polyreactivity”.
Under “QVQLVESGGGLVQAGGSLRLSCAASGRIFWYYAMGWYRQAPGKERELVATISYVGGNTYYADSVKGRFTISRDNAKNTVYLQMNSLKPDDTAVYYCARVPYAYLPYKPFQQYSYDYWGQGTQVTVSS” stands “high polyreactivity”; under “QVQLVESGGGLVQAGGSLRLSCAASGITFDYYDMGWYRTAPGKERELVAAISSDGSTYYADSVKGRFTISRDNAKNTVYLQMNSLKPEDTAVYYCNAVAIEPYFYVVYDIFDYWGQGTQVTVSS”, “low polyreactivity”; under “QVQLVESGGGLVQAGGSLRLSCDPSGRIFNRYAMGWYRQAPGKERELVAAITSGGDTNYADSVKGRFTISRDNAKNTVYLQMNSLKQEDTAVYYCNARSRGRASGYDYWGQGTQVTVSS”, “high polyreactivity”.
On to “QVQLVESGGGLVQAGGRLRLSCAASGFIFPHYAMGWYRQAPGKDRELVAAITWSGSSTYYADSVKGRFTISRDNAKNTVYLQMNSLKPEDTAVYYCYADYRLWPTSRYRYGYWGQGTQVTVTS”, for which the “polyreactivity (PSR sort gate)” value was “high polyreactivity”.
With “QVQLVESGGGLVQAGGSLRLSCAASGSTITFYTMGWYRQEPGKEREFVADIDDSGGITYYADSVKGRFTISRDNAKNTVYLQMNSLKPEDTAVYSCAAEYWTACYWICVDYWGQGTQVTVSS” the entry was “high polyreactivity”.
Under “QVQLVESGGGLVQAGGSLRLSCAASGRIFAFNAMGWYRQAPGKERELVADITSSGVNTYYADSVKGRFTISRDNAKNTVYLQMNSLKPEDTAVYYCAARSYLRWWVGMEYWGQGTQVTVSS” stands “low polyreactivity”.
